Assay results from patent US20230416396A1 (Regeneron, published 2023).

Assays:
human 4-1BB on cells [1] = biological target: T1, human 4-1BB on cells (human, UniProt Q07011 24-255); test: cell-based or functional assay
[2] = biological target: T2, human 4-1BB expressed with a C-terminal murine Fc tag (human, UniProt Q07011 24-186); test: SPR Biacore 4000, h4-1BB.mFc captured by anti-mouse Fc, antibody as analyte, 25 C
T2 construct: also called h4-1BB.mFc; REGN3585; not shown: C-terminal murine Fc tag
Experimental: Equilibrium dissociation constants (KD values) for human 4-1BB expressed with a C-terminal murine Fc tag (h4-1BB.mFc, REGN3585) binding to purified anti-CD38×4-1BB 1+2 antibodies were determined using a real-time surface plasmon resonance biosensor using a Biacore 4000 instrument. […] All Biacore binding studies were performed in a buffer composed of 0.01M HEPES pH 7.4, 0.15M NaCl, 3 mM EDTA, 0.05% v/v Surfactant P20 (HBS-EP running buffer). Different concentrations of CD38×4-1BB 1+2 constructs prepared in HBS-EP running buffer (ranging from 100 to 6.25 nM in 4-fold serial dilutions) were injected over the h4-1BB.mFc (REGN3585) captured surface at a flow rate of 30 μL/minute. Antibody-reagent association was monitored for 5 minutes while dissociation in HBS-EP running buffer was monitored for 10 minutes. At the end of each cycle, the h4-1BB.mFc capture surface was regenerated using a 40 sec injection of 10 mM glycine, pH 1.5. All binding kinetics experiments were performed at 25° C.
(§1) Kinetic association (kₐ) and dissociation (kd) rate constants were determined by fitting the real-time sensorgrams to a 1:1 binding model using Cytiva Insight curve fitting software. Binding dissociation equilibrium constants (KD) and dissociative half-lives (t/2) were calculated from the kinetic rate constants as: […]

[3] = biological target: T3, human 4-1BB expressed with a C-terminal myc-myc-hexahistidine tag (human, UniProt Q07011 24-186); test: SPR Biacore 8k, antibody captured by anti-human Fc, h4-1BB.mmH as analyte, 25 C
T3 construct: also called h4-1BB.mmH; REGN3584; not shown: C-terminal myc-myc-hexahistidine tag
Experimental: (§2) Equilibrium dissociation constants (KD values) for human 4-1BB expressed with a C-terminal myc-myc-hexahistidine tag (h4-1BB.mmH, REGN3584) or human 4-1BB expressed with a C-terminal murine Fc tag (h4-1BB.mFc, REGN3585) binding to purified anti-CD38×4-1BB 1+2 antibodies were determined using a real-time surface plasmon resonance biosensor using a Biacore 8k instrument. The CM5 Biacore sensor surface was derivatized by amine coupling with a monoclonal mouse anti-human Fc antibody (REGN2567). All Biacore binding studies were performed in a buffer composed of 0.01M HEPES pH 7.4, 0.15M NaCl, 3 mM EDTA, 0.05% v/v Surfactant P20 (HBS-EP running buffer). […] Antibody-reagent association was monitored for 5 minutes while dissociation in HBS-EP running buffer was monitored for 10 minutes. At the end of each cycle, the anti-CD38×4-1BB 1+2 antibody capture surface was regenerated using a 10 second injection of 20 mM phosphoric acid. All binding kinetics experiments were performed at 25° C.
as §1

human 4-1BB on cells [4] = biological target: T1, human 4-1BB on cells; test: flow cytometry on HEK293/h4-1BB cells, APC anti-human secondary
Experimental: (§3) The ability of the multispecific antigen binding molecules to bind cells was assessed using flow cytometry. Cell lines were chosen to determine the ability of both the anti-CD38 and anti-4-1BB arms to bind their targets. […] Binding was detected by using a labeled secondary antibody and measuring fluorescence on a flow cytometer.
HEK293 and HEK293/4-1BB cells were lifted with trypsin, washed and resuspended in stain buffer (2% FBS in PBS) and added to wells of a 96 well V-bottom plate (3×10⁵ cells/well). A 1:5, 9-point, dose titration of test antibodies was diluted in stain buffer and added to cells to a final concentration ranging from 1.3 pM to 100 nM (a “no antibody” control was included as the ninth point ([…]) labeled as “secondary only”). Cells and antibodies were incubated for 30 min on ice and then washed in stain buffer. Cells were resuspended in 2 ug/ml allophycocyanin (APC) conjugated goat-anti human secondary antibody and incubated for 30 min on ice. Cells were then washed and resuspended in viability dye (according to the manufacturer's protocol) and incubated for 30 min on ice. Cells were then washed with stain buffer and resuspended in 2% PFA for 30 min on ice. After washing, cells were filtered and analyzed by flow cytometry to determine the geometric mean fluorescence intensity (gMFI), which was subsequently plotted using GraphPad Prism software. EC₅₀ values of the antibodies were determined from a 4-parameter logistic equation over a 9-point dose response curve (including secondary only control).

[5] = biological target: T4, human CD38 endogenously expressed on MOLP8 cells (human, UniProt P28907 1-300); test: flow cytometry on MOLP8 cells (endogenous hCD38), APC anti-human secondary
T4 construct: whole, on cells; also called hCD38
Experimental: as §3
HEK293 cells were lifted with trypsin, washed and resuspend in stain buffer (2% FBS in PBS). MOLP8 cells were washed and resuspended in stain buffer. Cells were added to wells of a 96 well V-bottom plate (3×10⁵ cells/well). A 1:4, 9-point, dose titration of test antibodies was diluted in stain buffer and added to cells to a final concentration ranging from 610 fM to 10 nM (a “no antibody” control was included as the ninth point (153fM), labeled as “secondary only”). Cells and antibodies were incubated for 30 min on ice and then washed in stain buffer. Cells were resuspended in 2 ug/ml allophycocyanin (APC) conjugated goat-anti human secondary antibody and incubated for 30 min on ice. Cells were then washed and resuspended in viability dye (according to the manufacturer's protocol) and incubated for 30 min on ice. Cells were then washed with stain buffer and resuspended in 2% PFA for 30 min on ice. After washing, cells were filtered and analyzed by flow cytometry to determine the geometric mean fluorescence intensity (gMFI), which was subsequently plotted using GraphPad Prism software. EC₅₀ values of the antibodies were determined from a 4-parameter logistic equation over a 9-point dose response curve (including secondary only control, representing the ninth point).

human 4-1BB on cells [6] = biological target: T1, human 4-1BB on cells; test: cell-based or functional assay; remark: listed apart in the source
[7] = biological target: T2, human 4-1BB expressed with a C-terminal …; test: SPR Biacore 8k, antibody captured by anti-human Fc, h4-1BB.mFc as analyte, 25 C
Experimental: as §2, §1

human 4-1BB on cells [8] = biological target: T1, human 4-1BB on cells; test: cell-based or functional assay; remark: listed apart in the source
human 4-1BB on cells [9] = biological target: T1, human 4-1BB on cells; test: cell-based or functional assay; remark: listed apart in the source

T1 sequence (Q07011 24-255): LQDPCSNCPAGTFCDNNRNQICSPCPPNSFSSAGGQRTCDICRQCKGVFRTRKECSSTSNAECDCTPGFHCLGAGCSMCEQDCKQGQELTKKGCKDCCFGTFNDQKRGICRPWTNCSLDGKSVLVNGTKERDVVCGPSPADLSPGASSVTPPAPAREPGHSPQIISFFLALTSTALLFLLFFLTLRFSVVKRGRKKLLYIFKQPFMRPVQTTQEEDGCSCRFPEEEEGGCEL
T3 sequence (Q07011 24-186 limits assumed): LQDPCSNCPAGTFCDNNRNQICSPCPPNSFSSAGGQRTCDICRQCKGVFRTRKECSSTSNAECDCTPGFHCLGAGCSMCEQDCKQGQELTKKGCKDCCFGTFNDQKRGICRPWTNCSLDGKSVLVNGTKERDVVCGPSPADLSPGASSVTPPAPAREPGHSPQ
T2 sequence (Q07011 24-186 limits assumed): as above

EC50 of IL-2 release, T cells + NALM6 + Cemiplimab (human 4-1BB on cells [1]): 155 pM
EC50 of IL-2 release, T cells + NALM6 + IgG4P (human 4-1BB on cells [1]): 179 pM
EC50 of IL-2 release, T cells + NALM6/PD-L1 + Cemiplimab (human 4-1BB on cells [1]): 283 pM
EC50 of IL-2 release, T cells + NALM6/PD-L1 + IgG4P (human 4-1BB on cells [1]): 228 pM
100 nM Ab Bind (RU) [2]: 266 RU
Kd [2]: 797 pM
koff [2]: 0.000169 s⁻¹
kon [2]: 212000 M⁻¹ s⁻¹
t½ [2]: 1.14 h
100 nM h4-1BB.mmH Bind (RU) [3]: 41.9 RU
Kd [3]: 20400 pM
koff [3]: 0.00535 s⁻¹
kon [3]: 262000 M⁻¹ s⁻¹
t½ [3]: 2.2 min
EC50 (human 4-1BB on cells [4]): 997 pM
MAX gMFI (human 4-1BB on cells [4]): 1e+06 gMFI
MAX gMFI [5]: 140000 gMFI
EC50 of IFNγ release, T cells + NALM-6 + Cemiplimab (human 4-1BB on cells [6]): 156 pM
100 nM h4-1BB.mFc Bind (RU) [7]: 152 RU
Kd [7]: 1200 pM
koff [7]: 0.000122 s⁻¹
kon [7]: 102000 M⁻¹ s⁻¹
t½ [7]: 1.58 h
EC50 of IL-2 release, T cells + HEK293/CD20/CD38 + REGN1979 (human 4-1BB on cells [8]): 14 pM
EC50 of IL-2 release, T cells + MOLP-8 + REGN5458 (human 4-1BB on cells [8]): 31.7 pM
MAX IL-2 release, T cells + HEK293/CD20 + REGN1979 (human 4-1BB on cells [8]): 184 pg/mL
MAX IL-2 release, T cells + HEK293/CD20/CD38 + IsoC (human 4-1BB on cells [8]): 10 pg/mL
MAX IL-2 release, T cells + HEK293/CD20/CD38 + REGN1979 (human 4-1BB on cells [8]): 2720 pg/mL
MAX IL-2 release, T cells + MOLP-8 + IsoC (human 4-1BB on cells [8]): 288 pg/mL
MAX IL-2 release, T cells + MOLP-8 + REGN5458 (human 4-1BB on cells [8]): 553 pg/mL
EC50 of luciferase activity, HEK293/NFkB-Luc/h4-1BB reporter + OPM2 (human 4-1BB on cells [9]): 98.9 pM
MAX luciferase activity, HEK293/NFkB-Luc/h4-1BB reporter + HEK293/CD20 (human 4-1BB on cells [9]): 1.5e+06 RLU
MAX luciferase activity, HEK293/NFkB-Luc/h4-1BB reporter + HEK293/CD20/CD38 (human 4-1BB on cells [9]): 2.3e+06 RLU
MAX luciferase activity, HEK293/NFkB-Luc/h4-1BB reporter + MOLP-8 (human 4-1BB on cells [9]): 2.4e+06 RLU
MAX luciferase activity, HEK293/NFkB-Luc/h4-1BB reporter + OPM2 (human 4-1BB on cells [9]): 2e+06 RLU
B1: REGN7650 (bispecific antibody, human IgG4 S228P, kappa)
heavy 1: EVQLVESGGGLVQPGGSLRLPCAASGFTFSSYAMSWVRQAPGKGLEWVADISGSGGDTYYVDSVKGRFTISRDNSKNTLYLQMNSLRIEDTAVYYCAKGRWHWNYEGFDIWGQGTMVTVSSASTKGPSVFPLAPCSRSTSESTAALGCLVKDYFPEPVTVSWNSGALTSGVHTFPAVLQSSGLYSLSSVVTVPSSSLGTKTYTCNVDHKPSNTKVDKRVESKYGPPGGGGSGGGGSGGGGSQVQLVESGGDVVQPGRSLRLSCTASGFTFSSFGMHWVRQAPGKGLEWVTFLSYDGSYKYYADSVKGRFTISRDNSKNTLYLQMNSLRAEDTAIFYCARDWLDYWGQGTLVTVSSASTKGPSVFPLAPCSRSTSESTAALGCLVKDYFPEPVTVSWNSGALTSGVHTFPAVLQSSGLYSLSSVVTVPSSSLGTKTYTCNVDHKPSNTKVDKRVESKYGPPCPPCPAPPVAGPSVFLFPPKPKDTLMISRTPEVTCVVVDVSQEDPEVQFNWYVDGVEVHNAKTKPREEQFNSTYRVVSVLTVLHQDWLNGKEYKCKVSNKGLPSSIEKTISKAKGQPREPQVYTLPPSQEEMTKNQVSLTCLVKGFYPSDIAVEWESNGQPENNYKTTPPVLDSDGSFFLYSRLTVDKSRWQEGNVFSCSVMHEALHNRFTQKSLSLSPGK
heavy 2: EVQLVESGGGLVQPGRSLRLSCAASGFTFDDYAMHWVRQAPGKGLEWVSGISWKSDNIGYADSVKGRFTISRDNAKNSLYLQMNSLRAEDTALYYCAKALGGWKFDYYYGMDVWGQGTTVTVSSASTKGPSVFPLAPCSRSTSESTAALGCLVKDYFPEPVTVSWNSGALTSGVHTFPAVLQSSGLYSLSSVVTVPSSSLGTKTYTCNVDHKPSNTKVDKRVESKYGPPCPPCPAPPVAGPSVFLFPPKPKDTLMISRTPEVTCVVVDVSQEDPEVQFNWYVDGVEVHNAKTKPREEQFNSTYRVVSVLTVLHQDWLNGKEYKCKVSNKGLPSSIEKTISKAKGQPREPQVYTLPPSQEEMTKNQVSLTCLVKGFYPSDIAVEWESNGQPENNYKTTPPVLDSDGSFFLYSRLTVDKSRWQEGNVFSCSVMHEALHNHYTQKSLSLSLGK
light: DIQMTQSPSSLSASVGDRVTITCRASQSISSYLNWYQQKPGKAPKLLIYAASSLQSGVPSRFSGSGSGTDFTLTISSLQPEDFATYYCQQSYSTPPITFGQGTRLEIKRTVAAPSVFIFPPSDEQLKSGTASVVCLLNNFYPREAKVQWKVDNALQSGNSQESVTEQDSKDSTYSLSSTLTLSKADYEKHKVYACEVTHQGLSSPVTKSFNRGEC
notes: 1+2 format, hIgG4P-PVA; also called CD38x4-1BB (1 + 2); 26812P2 x 25898P2 (IN) + 35321P2 (OUT)
